# B1: Est684 (uncultured microorganism) (protein)
# chain: MPSGENQFYVDKPSRGENYGAYVADELVEFTRKMFPLSYKKEDTFIAGLSMGGYGALINGLKYHETFSHIGAFSPGLMIDDIASRSELLSVTGWSMDFYGNSFGGIDTIKNSDKDYYYLIDQLLENKKEIPKIYLPIGTDDFLLESVRGFKSFVDKREVPLTYIEDDGGHEWDFWDKYVKNFLEWLPLEEKGNYLNSGNVAEHGFRDADAQKAQAALVAWFEETLKK
# notes: E. coli BL21 (DE3); Ni-NTA and Superdex 200; putative triad S103/D167/H203
# Substrate: CCCC(=O)Oc1ccc([N+](=O)[O-])cc1
# Test: purified protein
# Type: biochemical, uncultured microorganism
# Conditions: free (soluble) enzyme, potassium phosphate pH 6.5, 18 °C, substrate range printed as 1.0 to 10.0 mM, does not fit the printed Km unit
protein,measurement,value
B1,Km,6.01 mM
same,kcat,417.15 ± 1.51 s⁻¹
